Laboratory results from article PMC11758950.

Biological target: T1, ELFN1-myc (mouse) (UniProt Q8C8T7)
T1 sequence: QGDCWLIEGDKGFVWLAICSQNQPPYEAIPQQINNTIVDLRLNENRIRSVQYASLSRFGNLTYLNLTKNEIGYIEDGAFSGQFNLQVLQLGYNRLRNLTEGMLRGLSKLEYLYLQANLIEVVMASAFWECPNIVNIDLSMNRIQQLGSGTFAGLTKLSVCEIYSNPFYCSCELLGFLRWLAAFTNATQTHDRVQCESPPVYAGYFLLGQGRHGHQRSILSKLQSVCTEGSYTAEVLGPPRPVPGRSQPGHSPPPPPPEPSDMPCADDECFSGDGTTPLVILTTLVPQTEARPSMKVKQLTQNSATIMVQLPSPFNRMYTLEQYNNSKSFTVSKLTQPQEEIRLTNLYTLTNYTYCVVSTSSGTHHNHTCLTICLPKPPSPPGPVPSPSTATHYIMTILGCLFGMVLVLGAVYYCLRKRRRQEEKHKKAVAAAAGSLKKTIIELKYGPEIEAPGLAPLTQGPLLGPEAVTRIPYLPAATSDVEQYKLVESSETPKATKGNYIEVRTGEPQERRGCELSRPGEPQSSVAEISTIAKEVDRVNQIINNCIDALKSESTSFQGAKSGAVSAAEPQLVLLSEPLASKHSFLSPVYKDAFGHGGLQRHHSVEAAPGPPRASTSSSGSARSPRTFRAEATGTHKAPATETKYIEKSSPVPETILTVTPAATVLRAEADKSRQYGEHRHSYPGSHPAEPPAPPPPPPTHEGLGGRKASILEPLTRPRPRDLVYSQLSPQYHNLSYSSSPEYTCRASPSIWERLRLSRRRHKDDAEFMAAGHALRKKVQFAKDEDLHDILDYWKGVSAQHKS

cell membrane enrichment of ELFN1Δ452-Venus (membrane against proximal cytosolic pixel intensity) with co-expression of ELFN1-myc (median 92.50% under control conditions): 129%
percentage of cells with membrane enrichment of ELFN1Δ452-Venus when co-expressed with ELFN1-myc (0.000 without ELFN1-myc); live-cell confocal microscopy, HEK293: 33.4%
B1: ELFN1Δ452-Venus (domain or fragment)
chain: QGDCWLIEGDKGFVWLAICSQNQPPYEAIPQQINNTIVDLRLNENRIRSVQYASLSRFGNLTYLNLTKNEIGYIEDGAFSGQFNLQVLQLGYNRLRNLTEGMLRGLSKLEYLYLQANLIEVVMASAFWECPNIVNIDLSMNRIQQLGSGTFAGLTKLSVCEIYSNPFYCSCELLGFLRWLAAFTNATQTHDRVQCESPPVYAGYFLLGQGRHGHQRSILSKLQSVCTEGSYTAEVLGPPRPVPGRSQPGHSPPPPPPEPSDMPCADDECFSGDGTTPLVILTTLVPQTEARPSMKVKQLTQNSATIMVQLPSPFNRMYTLEQYNNSKSFTVSKLTQPQEEIRLTNLYTLTNYTYCVVSTSSGTHHNHTCLTICLPKPPSPPGPVPSPSTATHYIMTILGCLFGMVLVLGAVYYCLRKRRRQEEKHKK
